Results as given in article PMC8811534.

Biological target: hAGO2 (human, UniProt Q9UKV8 1-859)
Assay: EMSA

hAGO2, sequence (Q9UKV8 whole entry): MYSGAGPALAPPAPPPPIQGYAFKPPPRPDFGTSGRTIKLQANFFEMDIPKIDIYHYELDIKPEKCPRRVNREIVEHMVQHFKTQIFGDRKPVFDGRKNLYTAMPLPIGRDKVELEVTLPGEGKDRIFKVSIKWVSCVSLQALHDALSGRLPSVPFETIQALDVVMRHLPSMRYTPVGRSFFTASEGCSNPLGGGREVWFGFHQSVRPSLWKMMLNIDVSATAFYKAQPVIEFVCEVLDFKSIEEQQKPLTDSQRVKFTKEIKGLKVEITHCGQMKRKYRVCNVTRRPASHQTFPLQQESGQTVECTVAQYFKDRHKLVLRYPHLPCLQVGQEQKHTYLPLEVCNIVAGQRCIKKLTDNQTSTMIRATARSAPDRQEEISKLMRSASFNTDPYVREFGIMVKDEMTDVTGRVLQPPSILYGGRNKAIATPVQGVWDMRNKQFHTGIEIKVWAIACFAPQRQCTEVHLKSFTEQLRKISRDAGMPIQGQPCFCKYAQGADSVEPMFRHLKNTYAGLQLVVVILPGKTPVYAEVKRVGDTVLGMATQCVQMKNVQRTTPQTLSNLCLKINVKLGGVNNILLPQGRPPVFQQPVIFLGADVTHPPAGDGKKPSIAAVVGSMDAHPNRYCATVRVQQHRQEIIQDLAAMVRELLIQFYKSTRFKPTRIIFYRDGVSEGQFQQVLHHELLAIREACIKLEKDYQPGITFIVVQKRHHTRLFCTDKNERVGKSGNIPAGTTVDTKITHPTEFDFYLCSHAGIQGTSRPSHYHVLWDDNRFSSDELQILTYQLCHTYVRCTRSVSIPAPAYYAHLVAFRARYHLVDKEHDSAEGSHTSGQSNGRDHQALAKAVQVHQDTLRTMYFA

B1: 5'Cy5-HIS-SARS2-1 DNA duplex (dsDNA)
DNA 1: AGCCTTTACCTCCATTAGCATAGACA
DNA 2: TGTCTATGCTAATGGAGGTAAAGGCT
binding result: binds
